Assay results reported in PMC8413711, “Structure-based analyses of neutralization antibodies interacting with naturally occurring SARS-CoV-2 RBD variants” (Cell Research, 2021).

B1: BD-503 (antibody, V domains shown)
VH: EVQLVESGGGLIQPGGSLRLSCAASGLIVSSNYMSWVRQAPGKGLEWVSVLYAGGSTDYAGSVKGRFTISRDNSKNTLYLQMNSLRAEDTAVYYCARDAAVYGIDVWGQGTTVTVSS
VL: not shown
notes: also called BD-503 NAb
B2: BD-623 (antibody, V domains shown)
VH: EVQLVESGGGLVQPGGSLRLSCAASGFTVSSNYMSWVRQAPGKGLEWVSIIYSGGSTYYADSVKGRFTISRDNSKNTLYLQMNSLRAEDTAVYYCARDYAGRVWGQGTLVTVSS
VL: QSALTQPASVSGSPGQSITISCTGTSSDVGSYNLVSWYQQRPGKAPKLILYEVTKRPSGVSNRFSGSKSGNTASLAISGLQAEDEADYYCCSYAGSSTWVFGGGTKLTVL
B3: BD-515 (antibody, V domains shown)
VH: EVQLVESGGGLVQPGGSLRLSCAASEFIVSRNYMSWVRQAPGKGLEWVSVIYSGGSTFYADSVKGRFTISRDNSKNTLYLQMNSLRAEDTGVYYCARDRGLVSDYWGQGTLVTVSS
VL: DIQMTQSPSSLSASVGDRVTITCQASQDINKYLNWYQQKPGKAPKLLIFDASHLETGVPSRFSASGSGTDFTFTISSLQPEDIATYYCHQYDNLPRTFGQGTRLEIK
B4: BD-604 (antibody, V domains shown)
VH: EVQLVESGGGLIQPGGSLRLSCAASGIIVSSNYMTWVRQAPGKGLEWVSVIYSGGSTFYADSVKGRFTISRDNSKNTLYLQMSSLRAEDTAVYYCARDLGPYGMDVWGQGTTVTVSS
VL: DIQLTQSPSFLSASVGDRVTITCRASQGISSDLAWYQQKPGKAPNLLIYAASTLQSGVPSRFSGSGSGTEFTLTISSLQPEDFATYYCQQLNSDLYTFGQGTKLEIK

Each binder was assayed against T1, RBD-501Y.V2 (SARS-CoV-2, B.1.351 (501Y.V2) lineage …, K417N | E484K | N501Y) (assay: SPR). Conditions: both partners purified.
T1 construct: also called K417N/E484K/N501Y ternary mutation; B.1.351 lineage RBD

B1 and B2 cannot be ordered by “fold reduction of binding affinity against RBD” value: over 3 fold for the first, over 3 fold for the second.

B3 and B4 cannot be ordered by “fold reduction of binding affinity against RBD” value: over 3 fold for the first, 60 fold for the second.
